We go through three molecules from article PMC7969950.

Sequences and labels used below:
B1: wild-type Flag-CTNNA1 (in MCF10A cells), P35221 Y419A; V422A; L897A; F900A (protein)
chain: MTAVHAGNINFKWDPKSLEIRTLAVERLLEPLVTQVTTLVNTNSKGPSNKKRGRSKKAHVLAASVEQATENFLEKGDKIAKESQFLKEELVAAVEDVRKQGDLMKAAAGEFADDPCSSVKRGNMVRAARALLSAVTRLLILADMADVYKLLVQLKVVEDGILKLRNAGNEQDLGIQYKALKPEVDKLNIMAAKRQQELKDVGHRDQMAAARGILQKNVPILYTASQACLQHPDVAAYKANRDLIYKQLQQAVTGISNAAQATASDDASQHQGGGGGELAYALNNFDKQIIVDPLSFSEERFRPSLEERLESIISGAALMADSSCTRDDRRERIVAECNAVRQALQDLLSEYMGNAGRKERSDALNSAIDKMTKKTRDLRRQLRKAVMDHVSDSFLETNVPLLVLIEAAKNGNEKEVKEAAQAFREHANKLIEVANLACSISNNEEGVKLVRMSASQLEALCPQVINAALALAAKPQSKLAQENMDLFKEQWEKQVRVLTDAVDDITSIDDFLAVSENHILEDVNKCVIALQEKDVDGLDRTAGAIRGRAARVIHVVTSEMDNYEPGVYTEKVLEATKLLSNTVMPRFTEQVEAAVEALSSDPAQPMDENEFIDASRLVYDGIRDIRKAVLMIRTPEELDDSDFETEDFDVRSRTSVQTEDDQLIAGQSARAIMAQLPQEQKAKIAEQVASFQEEKSKLDAEVSKWDDSGNDIIVLAKQMCMIMMEMTDFTRGKGPLKNTSDVISAAKKIAEAGSRMDKLGRTIADHCPDSACKQDLLAYLQRIALYCHQLNICSKVKAEVQNLGGELVVSGVDSAMSLIQAAKNLMNAVVQTVKASYVASTKYQKSQGMASLNLPAVSWKMKAPEKKPLVKREKQDETQTKIKRASQKKHVNPVQAASEAKAMDSI
B2: wild-type Flag-CTNNA1 (in MCF10A cells), P35221 L897A; F900A (protein)
chain: B1 chain with A419Y, A422V
B3: wild-type Flag-CTNNA1 (in MCF10A cells), P35221 Y419A; V422A (protein)
chain: B1 chain with A897L, A900F

Positions count from the first letter of the chain named. Names and notes keep the numbering of the source.

The target in the experiment is endogenous LC3 (MCF10A cells), Q9GZQ8. Kind of experiment: co-immunoprecipitation (Flag-Trap), immunoblot. The conditions noted are these: chain shown with the change; BafA1-treated MCF10A cells; parent: 1.0. In general terms: A western blot detects proteins with antibodies after separation by electrophoresis.
B1: the ratio to parent amounted to 0.29. On to B2, for which the ratio to parent was 0.22. As for B3, the ratio to parent was found to be 0.23.
